Patent US20260166139A1
Where “and” joins values, the source holds several entries; their conditions need not be identical. Equal values may be shown once.

Experiments:
[1] = biological target: CTLA4 antigen (NCBI Gene ID: 1493) obtained by TEV protease cleavage of CTLA4-mFc (Homo sapiens (Human)) (UniProt P16410); test: BLI (Fortebio), antibody on AR2G sensor, CTLA4 in solution
[2] = biological target: murine CTLA4 (murine) (UniProt P09793); test: ELISA on coated CTLA4, source Mouse (row of 8D2(Re))
[3] = biological target: CTLA4-mFc; test: competitive ELISA, CTLA4-mFc coated, competitor B7/2-His; antibody 1 µg/ml diluted 1:243
[4] = biological target: CTLA4-mFc; test: competitive ELISA, B7/1-hFc coated (competitor), CTLA4-mFc added; antibody 5 µg/ml diluted 1:27
[5] = biological target: CTLA4-mFc; test: competition ELISA, coat B7/1-hFc 0.2 ug/ml (competitor), CTLA4-mFc 0.3 ug/ml detected; antibody 1:27 (start 3 ug/ml)
[6] = biological target: CTLA4-mFc; test: competitive ELISA, competitor B7-1; control run with 8D2H2L2
[7] = biological target: CTLA4-mFc; test: competitive ELISA, CTLA4-mFc coated, competitor B7/2-His; antibody 3 µg/ml diluted 1:27
[8] = biological target: human CTLA4 (human) (UniProt P16410); test: ELISA, coat human CTLA4 0.5 ug/ml; antibody 1:81 (start 1 ug/ml)
[9] = biological target: CTLA4-mFc; test: competitive ELISA, competitor B7-2; control run with 8D2(Re)
[10] = biological target: CTLA4-mFc; test: competitive ELISA, CTLA4-mFc coated, competitor B7/2-His; antibody 1.5 µg/ml diluted 1:729
[11] = biological target: human CTLA4 (human) (UniProt P16410); test: ELISA, coat CTLA4 0.5 ug/ml; antibody 1:3 (start 1 ug/ml)
[12] = biological target: monkey CTLA4-hFc (monkey); test: ELISA on coated CTLA4, source Monkey (row of 8D2H3L3)
[13] = biological target: CTLA4-mFc; test: competitive ELISA, B7/1-hFc coated (competitor), CTLA4-mFc added; antibody 5 µg/ml diluted 1:3
[14] = biological target: human CTLA4 (human) (UniProt P16410); test: ELISA, coat human CTLA4 0.5 ug/ml; antibody 1:729 (start 1 ug/ml)
[15] = biological target: human CTLA4 (human) (UniProt P16410); test: ELISA, coat human CTLA4 0.5 ug/ml; antibody 0 (blank)
[16] = biological target: CTLA4-mFc; test: competitive ELISA, competitor B7-1; control run with 8D2H2L17
[17] = biological target: human CTLA4 (human) (UniProt P16410); test: ELISA, coat CTLA4 0.5 ug/ml; antibody 1:81 (start 1 ug/ml)
[18] = biological target: CTLA4-mFc; test: competitive ELISA, CTLA4-mFc coated, competitor B7/2-His; antibody 1 µg/ml diluted 1:27
[19] = biological target: CTLA4-mFc; test: competitive ELISA, CTLA4-mFc coated, competitor B7/2-His; antibody 1.5 µg/ml diluted 1:27
[20] = biological target: murine CTLA4 (murine) (UniProt P09793); test: ELISA on coated CTLA4, source Mouse (row of 8D2H1L1)
[21] = biological target: CTLA4-mFc; test: competitive ELISA, competitor B7-1; control run with 8D2H1L1
[22] = biological target: human CTLA4 (human) (UniProt P16410); test: ELISA, coat human CTLA4 0.5 ug/ml; antibody 1:3 (start 1 ug/ml)
[23] = biological target: CTLA4-mFc; test: competitive ELISA, B7/1-hFc coated (competitor), CTLA4-mFc added; antibody 5 µg/ml
[24] = biological target: monkey CTLA4-hFc (monkey); test: ELISA, coat monkey CTLA4-hFc 0.25 ug/ml; antibody 1:243 (start 1 ug/ml)
[25] = biological target: CTLA4-mFc; test: competitive ELISA, competitor B7-2; control run with 8D2H2L17
[26] = biological target: CTLA4-mFc; test: competitive ELISA, competitor B7-2; control run with 8D2H2L15
[27] = biological target: CTLA4-mFc; test: competitive ELISA, B7/1-hFc coated (competitor), CTLA4-mFc added; antibody 5 µg/ml diluted 1:729
[28] = biological target: CTLA4-mFc; test: competitive ELISA, CTLA4-mFc coated, competitor B7/2-His; antibody 1 µg/ml diluted 1:81
[29] = biological target: human CTLA4 (human) (UniProt P16410); test: ELISA, coat human CTLA4 0.5 ug/ml; antibody 1:729 (start 1 ug/ml); remark: listed apart in the source
[30] = biological target: CTLA4-mFc; test: competitive ELISA, CTLA4-mFc coated, competitor B7/2-His; antibody 3 µg/ml diluted 1:9
[31] = biological target: CTLA4-mFc; test: competitive ELISA, B7/1-hFc coated (competitor), CTLA4-mFc added; antibody 5 µg/ml diluted 1:9
[32] = biological target: CTLA4-mFc; test: competitive ELISA, CTLA4-mFc coated, competitor B7/2-His; antibody 1.5 µg/ml diluted 1:243
[33] = biological target: murine CTLA4 (murine) (UniProt P09793); test: ELISA on coated CTLA4, source Mouse (row of 8D2)
[34] = biological target: human CTLA4 (human) (UniProt P16410); test: ELISA, coat human CTLA4 0.5 ug/ml; antibody 1:27 (start 1 ug/ml)
[35] = biological target: CTLA4-mFc; test: competitive ELISA, B7/1-hFc coated (competitor), CTLA4-mFc added; antibody 5 µg/ml diluted 1:729; remark: listed apart in the source
[36] = biological target: CTLA4-mFc; test: competitive ELISA, CTLA4-mFc coated, competitor B7/2-His; antibody 1 µg/ml diluted 1:9
[37] = biological target: CTLA4-mFc; test: competitive ELISA, CTLA4-mFc coated, competitor B7/2-His; antibody 1.5 µg/ml diluted 1:3
[38] = biological target: monkey CTLA4-hFc (monkey); test: ELISA on coated CTLA4, source Monkey (row of 8D2H2L2)

human CTLA4 (human), sequence (P16410 36-161 limits assumed): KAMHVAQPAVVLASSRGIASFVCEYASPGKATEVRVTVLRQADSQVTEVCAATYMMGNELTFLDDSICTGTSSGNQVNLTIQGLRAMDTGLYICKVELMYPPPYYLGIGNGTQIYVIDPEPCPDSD
CTLA4 antigen (NCBI Gene ID: 1493) obtained by TEV protease cleavage of CTLA4-mFc (Homo sapiens (Human)), sequence (P16410 37-161 limits assumed): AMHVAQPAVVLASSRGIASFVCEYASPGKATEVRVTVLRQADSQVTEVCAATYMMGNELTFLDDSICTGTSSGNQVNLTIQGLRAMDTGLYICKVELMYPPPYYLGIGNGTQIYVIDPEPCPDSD
CTLA4-mFc, sequence (chain, as listed by the source limits assumed): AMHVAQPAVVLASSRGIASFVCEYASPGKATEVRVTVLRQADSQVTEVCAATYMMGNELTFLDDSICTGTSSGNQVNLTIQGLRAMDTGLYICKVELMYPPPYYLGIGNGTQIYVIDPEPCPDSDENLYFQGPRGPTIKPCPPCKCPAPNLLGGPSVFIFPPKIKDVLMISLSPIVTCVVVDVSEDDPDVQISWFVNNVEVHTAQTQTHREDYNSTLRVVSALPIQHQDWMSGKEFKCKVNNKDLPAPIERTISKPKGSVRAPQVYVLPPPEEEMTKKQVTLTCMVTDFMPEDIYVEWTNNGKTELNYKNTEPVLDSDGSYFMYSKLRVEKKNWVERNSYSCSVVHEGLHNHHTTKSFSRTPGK
control antibody 11.2.1, sequence (VH): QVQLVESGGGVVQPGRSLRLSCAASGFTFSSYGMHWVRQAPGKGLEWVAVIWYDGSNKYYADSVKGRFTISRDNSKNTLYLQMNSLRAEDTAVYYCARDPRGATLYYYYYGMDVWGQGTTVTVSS
control antibody 11.2.1, sequence (VL): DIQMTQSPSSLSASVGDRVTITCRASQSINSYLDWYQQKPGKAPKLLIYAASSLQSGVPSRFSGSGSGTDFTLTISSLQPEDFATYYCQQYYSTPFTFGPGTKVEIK

Kd [1]: 0.903 nM
koff [1]: 0.000349 s⁻¹
kon [1]: 387000 M⁻¹ s⁻¹
EC50 [2]: 0.023 nM
absorbance at 450 nm [3]: 0.84 and 0.85
absorbance at 450 nm [4]: 1.14 and 1.19
absorbance at 450 nm [5]: 0.597 and 0.579
EC50 [6]: 1.07 nM
absorbance at 450 nm [7]: 0.676 and 0.585
absorbance at 450 nm [8]: 0.499 and 0.426
EC50 [9]: 0.15 nM
absorbance at 450 nm [10]: 0.981 and 0.746
absorbance at 450 nm [11]: 2.56 and 2.66
EC50 [12]: 0.075 nM
absorbance at 450 nm [13]: 0.09 and 0.097
absorbance at 450 nm [14]: 0.127 and 0.136
absorbance at 450 nm [15]: 0.072 and 0.064
EC50 [16]: 2.61 nM
absorbance at 450 nm [17]: 1.37 and 1.53
absorbance at 450 nm [18]: 0.57
absorbance at 450 nm [19]: 0.622 and 0.529
EC50 [20]: 0.023 nM
EC50 [21]: 1.69 nM
absorbance at 450 nm [22]: 3.5 and 3.48
absorbance at 450 nm [23]: 0.06
absorbance at 450 nm [24]: 0.13 and 0.172
EC50 [25]: 0.349 nM
EC50 [26]: 0.349 nM
absorbance at 450 nm [27]: 0.909 and 0.793
absorbance at 450 nm [28]: 0.84 and 0.76
absorbance at 450 nm [29]: 0.253 and 0.263
absorbance at 450 nm [30]: 0.412 and 0.482
absorbance at 450 nm [31]: 0.16 and 0.138
absorbance at 450 nm [32]: 0.93 and 0.754
EC50 [33]: 0.023 nM
absorbance at 450 nm [34]: 0.893 and 0.682
absorbance at 450 nm [35]: 1.32 and 1.31
absorbance at 450 nm [36]: 0.17 and 0.16
absorbance at 450 nm [37]: 0.437 and 0.348
EC50 [38]: 0.075 nM
Substance: control antibody 11.2.1
